Data on one molecule can be found in patent US20260061051A1 (JUNO THERAPEUTICS, published 2026).

For assay [1], the target named is T1, Human DLL3 (hDLL3) antigen (human, UniProt Q9NYJ7 27-492).
T1 construct: Soluble analyte in SPR; also called hDLL3 protein; soluble target antigen DLL3
T1 sequence: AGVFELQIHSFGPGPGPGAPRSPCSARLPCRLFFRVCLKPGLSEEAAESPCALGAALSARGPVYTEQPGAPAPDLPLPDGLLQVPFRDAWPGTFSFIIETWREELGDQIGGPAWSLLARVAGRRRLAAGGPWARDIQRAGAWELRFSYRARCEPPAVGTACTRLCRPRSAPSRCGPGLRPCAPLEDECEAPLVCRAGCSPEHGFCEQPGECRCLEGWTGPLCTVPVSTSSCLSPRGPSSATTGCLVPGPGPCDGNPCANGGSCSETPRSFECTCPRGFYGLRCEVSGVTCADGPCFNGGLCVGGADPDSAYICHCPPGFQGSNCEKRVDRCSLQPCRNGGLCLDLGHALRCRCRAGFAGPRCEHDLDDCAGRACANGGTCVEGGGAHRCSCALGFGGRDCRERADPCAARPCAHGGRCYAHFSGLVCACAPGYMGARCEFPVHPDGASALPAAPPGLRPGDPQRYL
In words: SPR, Biacore 8K, antibody captured on protein G chip, hDLL3 as analyte, multi-cycle. On the procedure:
The Biacore SPR 8K machine was used for kinetics binding analysis. The sensor surface of a protein G chip (series s Cat #29179315) was used to capture the ligands. 2 μg/ml of purified anti-DLL3 antibody was diluted in running buffer (0.01M HEPES, 0.15 NaCl, 3 mM EDTA, 0.005% Tween-20). The diluted antibody was then injected at a flow rate of 10 μL/min for 60 seconds. Human DLL3 (hDLL3) antigen was diluted in the same running buffer to 6 concentrations (30, 10, 3.33, 1.11, 0.37 and 0 nM). hDLL3 was then injected on all channels (with each channel having its own reference point) at a flow rate of 30 uL/min for an association phase of 300 seconds, followed by 600 seconds of dissociation. 6 cycles of running analyte were repeated according to analyte concentrations in ascending order. After each cycle of interaction analysis, the sensor chip surface was regenerated completely with Glycine-HCL pH 1.5 at a flow rate of […] for 60 s. The binding of the anti-DLL3 antibody and hDLL3 protein was analyzed by multi-cycle method.
A general note: SPR reads the build-up and loss of mass on a sensor chip optically.

Assay [2] deals with T2, Human DLL3 expressed on 293H cells (human, UniProt Q9NYJ7 27-618).
T2 construct: also called Human DLL3 cell; human DLL3 ORF-GFP
T2 sequence: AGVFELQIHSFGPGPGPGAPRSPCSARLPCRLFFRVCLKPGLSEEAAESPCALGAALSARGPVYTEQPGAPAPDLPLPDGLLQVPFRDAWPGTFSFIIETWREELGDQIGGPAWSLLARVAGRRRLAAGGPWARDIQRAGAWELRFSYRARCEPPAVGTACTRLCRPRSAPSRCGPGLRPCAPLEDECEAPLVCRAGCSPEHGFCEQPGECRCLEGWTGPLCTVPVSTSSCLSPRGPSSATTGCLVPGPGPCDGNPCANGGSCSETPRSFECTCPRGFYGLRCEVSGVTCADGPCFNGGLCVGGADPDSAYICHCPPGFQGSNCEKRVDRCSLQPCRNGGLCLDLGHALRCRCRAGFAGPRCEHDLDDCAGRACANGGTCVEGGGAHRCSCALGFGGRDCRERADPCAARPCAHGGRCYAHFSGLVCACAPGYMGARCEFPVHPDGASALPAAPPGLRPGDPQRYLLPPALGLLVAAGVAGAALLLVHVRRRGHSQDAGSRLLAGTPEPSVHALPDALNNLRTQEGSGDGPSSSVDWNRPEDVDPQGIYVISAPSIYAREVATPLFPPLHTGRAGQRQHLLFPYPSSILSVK
Kind of assay: flow cytometry on 293H cells expressing human DLL3, Alexa 647 anti-human IgG1 secondary, 0.6 to 200 nM. On the procedure:
(§1) Human DLL3 or cynomolgus macaque (cyno) DLL3 expressing cell lines were established by transfecting 293H cells with human DLL3 ORF-GFP or cyno DLL3 ORF-GFP plasmids and selecting stable single clone. A dose response curve for the anti-DLL3 mAb-1 binding to 293H cells expressing either human DLL3 or cyno DLL3 was generated by flow cytometry. Cells were incubated with increasing concentrations of anti-DLL3 mAb-1 in the range of 0.6 to 200 nM. Cells were washed then incubated with a secondary antibody (Alexa 647 conjugated anti-human IgG1) to measure the amount of antibody bound to the 293H cells. A dose response curve was fitted from the data using the non-linear regression function in GraphPad Prism version 8. Half-maximal concentration (EC₅₀) value was calculated from the dose response curve.
On the technique in general: In flow cytometry, cells or beads pass a laser one at a time.

Assay [3] deals with T3, Cynomolgus macaque (cyno) DLL3 expressed on 293H cells (cynomolgus macaque, UniProt Q9NYJ7 27-618 (human entry)).
T3 construct: also called Cyno DLL3 cell; cyno DLL3 ORF-GFP
T3 chain: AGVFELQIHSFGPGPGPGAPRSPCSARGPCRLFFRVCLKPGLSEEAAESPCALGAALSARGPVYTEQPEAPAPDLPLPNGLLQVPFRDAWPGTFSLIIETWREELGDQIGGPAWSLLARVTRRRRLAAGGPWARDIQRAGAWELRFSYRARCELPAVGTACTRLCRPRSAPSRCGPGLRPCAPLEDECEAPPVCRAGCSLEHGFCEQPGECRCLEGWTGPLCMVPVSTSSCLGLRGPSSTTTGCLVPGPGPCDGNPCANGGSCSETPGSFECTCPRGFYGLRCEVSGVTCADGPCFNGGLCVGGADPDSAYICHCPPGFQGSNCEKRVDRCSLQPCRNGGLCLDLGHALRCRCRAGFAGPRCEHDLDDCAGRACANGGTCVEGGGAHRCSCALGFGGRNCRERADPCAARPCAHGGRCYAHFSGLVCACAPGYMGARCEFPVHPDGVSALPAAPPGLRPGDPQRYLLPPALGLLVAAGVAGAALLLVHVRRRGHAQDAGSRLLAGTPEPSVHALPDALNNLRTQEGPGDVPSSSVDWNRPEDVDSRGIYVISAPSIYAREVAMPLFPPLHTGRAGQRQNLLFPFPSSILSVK
In words: flow cytometry on 293H cells expressing cyno DLL3, Alexa 647 anti-human IgG1 secondary, 0.6 to 200 nM. On the procedure:
as §1

B1: DLL3-mAb-1 (antibody, human IgG1, kappa, V domains shown)
VH: QVQLQESGPGLVKPSQTLSLTCTVSGDSISSDGYYWSWIRQHPGKGLEWIGYIYYSGNTYYNPSLKSRVTISVDTSKNQFSLKLTSVTAADTAIYYCAIDTASALAYWGQGTLVTVSS
VL: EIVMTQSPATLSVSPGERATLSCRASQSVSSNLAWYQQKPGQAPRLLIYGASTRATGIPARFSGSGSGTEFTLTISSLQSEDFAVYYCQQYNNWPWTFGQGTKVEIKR
notes: It was captured on a protein G chip and detected with anti-human IgG1, and it is a fully human antibody with a fixed human kappa light chain; also called anti-DLL3 mAb-1; anti-DLL3 antibody DLL3-mAb-1
For orientation: Kd means the equilibrium constant for the complex coming apart. Low readings indicate a tighter complex, high ones a looser complex. One may read the koff as the rate constant with which the complex falls apart. High values mean a short-lived complex, low ones a long-lived complex. Broadly, the kon is the rate constant with which the complex forms. Read a low kon as slower complex formation. The term EC50 denotes the midpoint of the concentration-response curve. The low end stands for a more potent agent, the high end for a less potent agent. Consider B1, for which, in assay [1], binding was characterised by a dissociation constant (Kd) of 58.8 nM, the koff came to 0.0137 s⁻¹ and the kon stood at 233000 M⁻¹ s⁻¹. In assay [2], this molecule returned an EC50 of 15.6 nM. The same molecule gave a concentration giving a half-maximal response (EC50) in assay [3] of 10.4 nM.
